How the values were obtained:
[1] = test system: Wildtype, non-transformed Arabidopsis thaliana c.v. Columbia; experiment: Glyphosate response of non-transformed control Arabidopsis; type: in vivo; conditions: WT (non-transformed control), 14 days after application
Procedure: (§1) The Arabidopsis T1 transformants (from transformation with pDAB114286 or pDAB114287) were first selected from the background of untransformed seed using a glufosinate selection scheme. Three flats or 50,000 seed were analyzed for each T1 construct. The selected T1 plants were molecularly characterized (as described above) and events with a range of copy number were sprayed with various rates of commercial glyphosate.
(§2) Transgenic T1 Arabidopsis plants containing the dgt-28 transgene were sprayed with differing rates of glyphosate. Elevated rates were applied in this study to determine the relative levels of resistance (420, 840, 1,680 or 3,360 g ae/ha). The typical 1× field usage rate of glyphosate is 1120 g ae/ha. The response of these plants is presented in terms of % visual injury 2 weeks after treatment (WAT). The T1 Arabidopsis plants that were used in this study were of variable copy number for the dgt-28 transgene. The low copy dgt-28 T1 Arabidopsis plants were self-pollinated and used to produce T2 plants.
(§3) An arithmetic mean and standard deviation is presented for each construct used for Arabidopsis transformation. The range in individual response is also indicated in the last column for each rate and transformation. Wildtype, non-transformed Arabidopsis thaliana c.v. Columbia served as a glyphosate sensitive control.

[2] = test system: dgt-28 transformed T1 Arabidopsis; experiment: Glyphosate tolerance of dgt-28 transformed T1 Arabidopsis; type: in vivo, Arabidopsis thaliana; conditions: 14 days after application
Procedure: as §1, §2, §3

[3] = 420 g ae/ha glyphosate postemergence
[4] = 840 g ae/ha glyphosate postemergence
[5] = 1680 g ae/ha glyphosate postemergence
[6] = 3360 g ae/ha glyphosate postemergence

Question: Which results are given for `O=C(O)CNCP(=O)(O)O` [glyphosate]?
Answer: % Injury Analysis Ave ([1]; 420 g ae/ha postemergence): 100.0%; % Injury Analysis Range (%) ([1]; 420 g ae/ha postemergence): 100%; % Injury Range (No. Replicates) 20-40% ([1]; 420 g ae/ha postemergence): 0; % Injury Range (No. Replicates) <20% ([1]; 420 g ae/ha postemergence): 0; % Injury Range (No. Replicates) >40% ([1]; 420 g ae/ha postemergence): 4; % Injury Analysis Ave ([1]; 840 g ae/ha postemergence): 100.0%; % Injury Analysis Range (%) ([1]; 840 g ae/ha postemergence): 100%; % Injury Range (No. Replicates) 20-40% ([1]; 840 g ae/ha postemergence): 0; % Injury Range (No. Replicates) <20% ([1]; 840 g ae/ha postemergence): 0; % Injury Range (No. Replicates) >40% ([1]; 840 g ae/ha postemergence): 4; % Injury Analysis Ave ([1]; 1680 g ae/ha postemergence): 100.0%; % Injury Analysis Range (%) ([1]; 1680 g ae/ha postemergence): 100%; % Injury Range (No. Replicates) 20-40% ([1]; 1680 g ae/ha postemergence): 0; % Injury Range (No. Replicates) <20% ([1]; 1680 g ae/ha postemergence): 0; % Injury Range (No. Replicates) >40% ([1]; 1680 g ae/ha postemergence): 4; % Injury Analysis Ave ([1]; 3360 g ae/ha postemergence): 100.0%; % Injury Analysis Range (%) ([1]; 3360 g ae/ha postemergence): 100%; % Injury Range (No. Replicates) 20-40% ([1]; 3360 g ae/ha postemergence): 0; % Injury Range (No. Replicates) <20% ([1]; 3360 g ae/ha postemergence): 0; % Injury Range (No. Replicates) >40% ([1]; 3360 g ae/ha postemergence): 4

B1: TraP26::dgt-28: TraP26-dgt28 fusion gene (SEQ ID NO:27) in construct pDAB114286, expressed in T1 Arabidopsis (protein)
chain: MAQVSMIPNAIQAPCSISLSKSQAGKSVRKVSLKPNQHAAWGLRRSGMRVGNPEVVVSASARGMPALSLPGSKSITARALFLAAAADGVTTLVRPLRSDDTEGFAEGLVRLGYRVGRTPDTWQVDGRPQGPAVAEADVYCRDGATTARFLPTLAAAGHGTYRFDASPQMRRRPLLPLSRALRDLGVDLRHEEAEGHHPLTVRAAGVEGGEVTLDAGQSSQYLTALLLLGPLTRQGLRIRVTDLVSAPYVEITLAMMRAFGVEVAREGDVFVVPPGGYRATTYAIEPDASTASYFFAAAALTPGAEVTVPGLGTGALQGDLGFVDVLRRMGAEVSVGADATTVRGTGELRGLTANMRDISDTMPTLAAIAPFASAPVRIEDVANTRVKECDRLEACAENLRRLGVRVATGPDWIEIHPGPATGAQVTSYGDHRIVMSFAVTGLRVPGISFDDPGCVRKTFPGFHEAFAELRRGIGS
modifications: Trap26 DGT28 fusion coding sequence
Question: What does the source list for B1?
Answer: % Injury Analysis Ave [2, 3]: 0.0%; % Injury Analysis Range (%) [2, 3]: 0%; % Injury Range (No. Replicates) 20-40% [2, 3]: 0; % Injury Range (No. Replicates) <20% [2, 3]: 4; % Injury Range (No. Replicates) >40% [2, 3]: 0; % Injury Analysis Ave [2, 4]: 0.0%; % Injury Analysis Range (%) [2, 4]: 0%; % Injury Range (No. Replicates) 20-40% [2, 4]: 0; % Injury Range (No. Replicates) <20% [2, 4]: 4; % Injury Range (No. Replicates) >40% [2, 4]: 0; % Injury Analysis Ave [2, 5]: 10.0%; % Injury Analysis Range (%) [2, 5]: 10%; % Injury Range (No. Replicates) 20-40% [2, 5]: 0; % Injury Range (No. Replicates) <20% [2, 5]: 4; % Injury Range (No. Replicates) >40% [2, 5]: 0; % Injury Analysis Ave [2, 6]: 16.3%; % Injury Analysis Range (%) [2, 6]: 15-20%; % Injury Range (No. Replicates) 20-40% [2, 6]: 1; % Injury Range (No. Replicates) <20% [2, 6]: 3; % Injury Range (No. Replicates) >40% [2, 6]: 0

B2: TraP27::dgt-28: TraP27-dgt28 fusion gene (SEQ ID NO:28) in construct pDAB114287, expressed in T1 Arabidopsis (protein)
chain: MATFTRVCHTARKSFVSLSNSQANSPVSVRFLSLPMPAARPAVKSGVRLWGCRLSFKVSASARGMPALSLPGSKSITARALFLAAAADGVTTLVRPLRSDDTEGFAEGLVRLGYRVGRTPDTWQVDGRPQGPAVAEADVYCRDGATTARFLPTLAAAGHGTYRFDASPQMRRRPLLPLSRALRDLGVDLRHEEAEGHHPLTVRAAGVEGGEVTLDAGQSSQYLTALLLLGPLTRQGLRIRVTDLVSAPYVEITLAMMRAFGVEVAREGDVFVVPPGGYRATTYAIEPDASTASYFFAAAALTPGAEVTVPGLGTGALQGDLGFVDVLRRMGAEVSVGADATTVRGTGELRGLTANMRDISDTMPTLAAIAPFASAPVRIEDVANTRVKECDRLEACAENLRRLGVRVATGPDWIEIHPGPATGAQVTSYGDHRIVMSFAVTGLRVPGISFDDPGCVRKTFPGFHEAFAELRRGIGS
modifications: Trap27 DGT28 fusion coding sequence
Question: For B2, which “% Injury Analysis Ave” value [2, 3] is on record?
Answer: 19.0%

Question: And the “% Injury Analysis Range (%)” value [2, 3]?
Answer: 10-30%

Question: What about the “% Injury Range (No. Replicates) 20-40%” value [2, 3] of the same molecule?
Answer: 1

Question: What about the “% Injury Range (No. Replicates) <20%” value [2, 3] of the same molecule?
Answer: 3

Question: What about the “% Injury Range (No. Replicates) >40%” value [2, 3] of the same molecule?
Answer: 0

Question: What about the “% Injury Analysis Ave” value [2, 4] of the same molecule?
Answer: 15.8%

Question: And the “% Injury Analysis Range (%)” value [2, 4]?
Answer: 10-20%

Question: And the “% Injury Range (No. Replicates) 20-40%” value [2, 4]?
Answer: 1

Question: What about the “% Injury Range (No. Replicates) <20%” value [2, 4] of the same molecule?
Answer: 3

Question: And the “% Injury Range (No. Replicates) >40%” value [2, 4]?
Answer: 0

Question: And the “% Injury Analysis Ave” value [2, 5]?
Answer: 18.8%

Question: And the “% Injury Analysis Range (%)” value [2, 5]?
Answer: 15-20%

Question: What about the “% Injury Range (No. Replicates) 20-40%” value [2, 5] of the same molecule?
Answer: 3

Question: What about the “% Injury Range (No. Replicates) <20%” value [2, 5] of the same molecule?
Answer: 1

Question: And the “% Injury Range (No. Replicates) >40%” value [2, 5]?
Answer: 0

Question: What about the “% Injury Analysis Ave” value [2, 6] of the same molecule?
Answer: 25.0%

Question: What about the “% Injury Analysis Range (%)” value [2, 6] of the same molecule?
Answer: 25%

Question: What about the “% Injury Range (No. Replicates) 20-40%” value [2, 6] of the same molecule?
Answer: 4

Question: What about the “% Injury Range (No. Replicates) <20%” value [2, 6] of the same molecule?
Answer: 0

Question: And the “% Injury Range (No. Replicates) >40%” value [2, 6]?
Answer: 0
